Reference: US20230105029A1
Several values for one entry are separate records, joined by “and”; a condition that tells them apart may be missing. Equal values may be shown once. Read-outs that look alike come from different tables or passages of the source.

Key:
[1] = biological target: cynomolgus monkey IL4Rα-his protein (cynomolgus monkey); assay: indirect ELISA, coated cyno IL4Rα-his
[2] = biological target: cynomolgus monkey IL4Rα-his protein (cynomolgus monkey); assay: indirect ELISA, coated cyno IL4Rα-his; remark: listed apart in the source
[3] = biological target: recombinant human IL4Rα-his protein (in house made) (human) (UniProt P24394); assay: competitive ELISA, blocks biotin-IL4Rα-his binding to coated Benchmark (self-competition)
[4] = biological target: recombinant human IL4Rα-his protein (in house made) (human) (UniProt P24394); assay: competitive ELISA: antibody mixed with biotin human IL4Rα-his, competitor plate-coated Benchmark
[5] = biological target: human IL4Rα expressed on 293F-IL4Rα cells (human) (UniProt P24394); assay: flow cytometry on 293F-IL4Rα cells
[6] = biological target: human IL4Rα expressed on 293F-IL4Rα cells (human) (UniProt P24394); assay: flow cytometry, 293F-IL4Rα cells
[7] = biological target: recombinant human IL4Rα-his protein (in house made) (human) (UniProt P24394); assay: SPR (Biacore), antibody captured, IL4Rα-his flowed
[8] = biological target: recombinant human IL4Rα-his protein (in house made) (human) (UniProt P24394); assay: capture ELISA: antibody captured on anti-IgG Fc plate, biotin human IL4Rα-his detected
[9] = biological target: marmoset monkey IL4Rα-his protein (marmoset monkey); assay: indirect ELISA, coated cal-IL4Rα-his
[10] = biological target: human IL4Rα expressed on 293F-IL4Rα cells (human) (UniProt P24394); assay: flow cytometry on 293F-IL4Rα cells; remark: listed apart in the source
[11] = biological target: recombinant human IL4Rα-his protein (in house made) (human) (UniProt P24394); assay: competitive ELISA: coated human IL4Rα-his, blocked ligand biotin human IL4
[12] = biological target: recombinant human IL4Rα-his protein (in house made) (human) (UniProt P24394); assay: as above; remark: listed apart in the source
[13] = biological target: recombinant human IL4Rα-his protein (in house made) (human) (UniProt P24394); assay: SPR (Biacore), antibody captured, IL4Rα-his flowed; remark: listed apart in the source
[14] = biological target: recombinant human IL4Rα-his protein (in house made) (human) (UniProt P24394); assay: competitive ELISA: antibody mixed with biotin human IL4Rα-his, competitor plate-coated Benchmark; remark: listed apart in the source
[15] = biological target: human IL4Rα expressed on HEK293T-IL4Rα-STAT6-STAT6LUC-LB2 cells (human) (UniProt P24394); assay: cell-based or functional assay
[16] = biological target: recombinant human IL4Rα-his protein (in house made) (human) (UniProt P24394); assay: capture ELISA: antibody captured on anti-IgG Fc plate, biotin human IL4Rα-his detected; remark: listed apart in the source
[17] = biological target: human IL4Rα expressed on 293F-IL4Rα cells (human) (UniProt P24394); assay: flow cytometry, 293F-IL4Rα cells; remark: listed apart in the source
[18] = biological target: recombinant human IL4Rα-his protein (in house made) (human) (UniProt P24394); assay: competitive ELISA, blocks biotin-IL4Rα-his binding to coated Benchmark (self-competition); remark: listed apart in the source
[19] = biological target: human IL4Rα expressed on 293F-IL4Rα cells (human) (UniProt P24394); assay: flow cytometry on 293F-IL4Rα cells; remark: listed apart in the source
[20] = biological target: human IL4Rα expressed on 293F-IL4Rα cells (human) (UniProt P24394); assay: flow cytometry on 293F-IL4Rα cells, blocked ligand biotin human IL4
[21] = biological target: human IL4Rα expressed on 293F-IL4Rα cells (human) (UniProt P24394); assay: flow cytometry on 293F-IL4Rα cells; remark: listed apart in the source
[22] = biological target: human IL4Rα expressed on 293F-IL4Rα cells (human) (UniProt P24394); assay: flow cytometry, 293F-IL4Rα cells; remark: listed apart in the source
[23] = biological target: recombinant human IL4Rα-his protein (in house made) (human) (UniProt P24394); assay: capture ELISA: antibody captured on anti-IgG Fc plate, biotin human IL4Rα-his detected; remark: listed apart in the source
[24] = biological target: human IL4Rα expressed on 293F-IL4Rα cells (human) (UniProt P24394); assay: flow cytometry on 293F-IL4Rα cells; remark: listed apart in the source
[25] = biological target: recombinant human IL4Rα-his protein (in house made) (human) (UniProt P24394); assay: capture ELISA: antibody captured on anti-IgG Fc plate, biotin human IL4Rα-his detected; remark: listed apart in the source
[26] = biological target: human IL4Rα expressed on 293F-IL4Rα cells (human) (UniProt P24394); assay: flow cytometry on 293F-IL4Rα cells, blocked ligand biotin human IL4; remark: listed apart in the source
[27] = biological target: marmoset monkey IL4Rα-his protein (marmoset monkey); assay: indirect ELISA on coated cal-IL4Rα-his
[28] = biological target: cynomolgus monkey IL4Rα-his protein (cynomolgus monkey); assay: indirect ELISA on coated cynomolgus IL4Rα-his
[29] = biological target: recombinant human IL4Rα-his protein (in house made) (human) (UniProt P24394); assay: competitive ELISA: antibody mixed with biotin human IL4Rα-his, competitor plate-coated Benchmark; remark: listed apart in the source
[30] = biological target: recombinant human IL4Rα-his protein (in house made) (human) (UniProt P24394); assay: capture ELISA, biotin-IL4Rα-his
[31] = biological target: recombinant human IL4Rα-his protein (in house made) (human) (UniProt P24394); assay: competitive ELISA: coated human IL4Rα-his, blocked ligand biotin human IL4; remark: listed apart in the source
[32] = biological target: human IL4Rα expressed on 293F-IL4Rα cells (human) (UniProt P24394); assay: flow cytometry on 293F-IL4Rα cells, blocked ligand biotin human IL4; remark: listed apart in the source
[33] = biological target: recombinant human IL4Rα-his protein (in house made) (human) (UniProt P24394); assay: competitive ELISA, blocks biotin-IL4 binding to coated IL4Rα-his
[34] = biological target: human IL4Rα expressed on 293F-IL4Rα cells (human) (UniProt P24394); assay: flow cytometry on 293F-IL4Rα cells; remark: listed apart in the source
[35] = biological target: recombinant human IL4Rα-his protein (in house made) (human) (UniProt P24394); assay: competitive ELISA: coated human IL4Rα-his, blocked ligand biotin human IL4; remark: listed apart in the source
[36] = biological target: human IL4Rα expressed on HEK293T-IL4Rα-STAT6-STAT6LUC-LB2 cells (human) (UniProt P24394); assay: cell-based or functional assay; remark: listed apart in the source
[37] = biological target: marmoset monkey IL4Rα-his protein (marmoset monkey); assay: indirect ELISA on coated cal-IL4Rα-his; remark: listed apart in the source
[38] = biological target: human IL4Rα expressed on 293F-IL4Rα cells (human) (UniProt P24394); assay: flow cytometry on 293F-IL4Rα cells, blocked ligand biotin human IL4; remark: listed apart in the source
[39] = biological target: recombinant human IL4Rα-his protein (in house made) (human) (UniProt P24394); assay: SPR (Biacore), antibody captured, IL4Rα-his flowed; remark: listed apart in the source
[40] = biological target: recombinant human IL4Rα-his protein (in house made) (human) (UniProt P24394); assay: capture ELISA: antibody captured on anti-IgG Fc plate, biotin human IL4Rα-his detected; remark: listed apart in the source
[41] = biological target: recombinant human IL4Rα-his protein (in house made) (human) (UniProt P24394); assay: competitive ELISA: coated human IL4Rα-his, blocked ligand biotin human IL4; remark: listed apart in the source
[42] = biological target: recombinant human IL4Rα-his protein (in house made) (human) (UniProt P24394); assay: SPR (Biacore), antibody captured, IL4Rα-his flowed; remark: listed apart in the source
[43] = biological target: recombinant human IL4Rα-his protein (in house made) (human) (UniProt P24394); assay: capture ELISA: antibody captured on anti-IgG Fc plate, biotin human IL4Rα-his detected; remark: listed apart in the source
[44] = biological target: human IL4Rα expressed on 293F-IL4Rα cells (human) (UniProt P24394); assay: flow cytometry on 293F-IL4Rα cells, blocked ligand biotin human IL4; remark: listed apart in the source
[45] = biological target: recombinant human IL4Rα-his protein (in house made) (human) (UniProt P24394); assay: competitive ELISA: antibody mixed with biotin human IL4Rα-his, competitor plate-coated Benchmark; remark: listed apart in the source
[46] = biological target: human IL4Rα expressed on 293F-IL4Rα cells (human) (UniProt P24394); assay: flow cytometry, blocks biotin-IL4 binding to 293F-IL4Rα cells
[47] = biological target: cynomolgus monkey IL4Rα-his protein (cynomolgus monkey); assay: indirect ELISA on coated cynomolgus IL4Rα-his; remark: listed apart in the source
[48] = biological target: recombinant human IL4Rα-his protein (in house made) (human) (UniProt P24394); assay: competitive ELISA, blocks biotin-IL4 binding to coated IL4Rα-his; remark: listed apart in the source
[49] = biological target: human IL4Rα expressed on 293F-IL4Rα cells (human) (UniProt P24394); assay: flow cytometry on 293F-IL4Rα cells; remark: listed apart in the source
[50] = biological target: recombinant human IL4Rα-his protein (in house made) (human) (UniProt P24394); assay: SPR (Biacore), antibody captured, IL4Rα-his flowed; remark: listed apart in the source
[51] = biological target: cynomolgus monkey IL4Rα-his protein (cynomolgus monkey); assay: indirect ELISA on coated cynomolgus IL4Rα-his; remark: listed apart in the source
[52] = biological target: human IL4Rα expressed on 293F-IL4Rα cells (human) (UniProt P24394); assay: flow cytometry, blocks biotin-IL4 binding to 293F-IL4Rα cells; remark: listed apart in the source
[53] = biological target: recombinant human IL4Rα-his protein (in house made) (human) (UniProt P24394); assay: competitive ELISA, blocks biotin-IL4 binding to coated IL4Rα-his; remark: listed apart in the source
[54] = biological target: human IL4Rα expressed on HEK293T-IL4Rα-STAT6-STAT6LUC-LB2 cells (human) (UniProt P24394); assay: cell-based or functional assay; remark: listed apart in the source

marmoset monkey IL4Rα-his protein (marmoset monkey), sequence (chain, as listed by the source limits assumed): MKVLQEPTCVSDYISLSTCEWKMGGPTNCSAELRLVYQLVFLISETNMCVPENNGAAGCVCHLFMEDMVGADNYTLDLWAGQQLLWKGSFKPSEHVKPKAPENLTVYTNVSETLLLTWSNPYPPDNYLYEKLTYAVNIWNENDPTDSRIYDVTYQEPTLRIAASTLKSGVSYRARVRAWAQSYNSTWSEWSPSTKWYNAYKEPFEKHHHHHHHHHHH
cynomolgus monkey IL4Rα-his protein (cynomolgus monkey), sequence (chain, as listed by the source): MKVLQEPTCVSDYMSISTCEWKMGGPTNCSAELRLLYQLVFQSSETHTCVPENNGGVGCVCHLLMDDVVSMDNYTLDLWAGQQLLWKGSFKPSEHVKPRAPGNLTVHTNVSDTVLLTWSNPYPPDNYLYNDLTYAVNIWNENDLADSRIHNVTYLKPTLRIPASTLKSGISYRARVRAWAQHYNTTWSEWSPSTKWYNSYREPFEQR

B1: anti-IL4Rα benchmark (Dupilumab) (antibody, INN chains, looked up, V domains shown)
VH: EVQLVESGGGLEQPGGSLRLSCAGSGFTFRDYAMTWVRQAPGKGLEWVSSISGSGGNTYYADSVKGRFTISRDNSKNTLYLQMNSLRAEDTAVYYCAKDRLSITIRPRYYGLDVWGQGTTVTVSS
VL: DIVMTQSPLSLPVTPGEPASISCRSSQSLLYSIGYNYLDWYLQKSGQSPQLLIYLGSNRASGVPDRFSGSGSGTDFTLKISRVEAEDVGFYYCMQALQTPYTFGQGTKLEIKR
- EC50 [1]: 0.95 nM
- EC50 [2]: 0.67 nM and 3.34 nM
- IC50 [3]: 0.02 nM
- IC50 [4]: 0.0235 nM
- EC50 [5]: 0.0816 nM
- EC50 [6]: 0.08 nM
- Dissociation % [7]: -2.64%
- End (RU) [7]: 70 RU
- Kd [7]: 0.188 nM
- Start (RU) [7]: 71.9 RU
- koff [7]: 6.25e-05 s⁻¹
- kon [7]: 333000 M⁻¹ s⁻¹
- EC50 [8]: 0.0479 nM
- EC50 [9]: 1.72 nM and 1.84 nM
- EC50 [10]: 0.128 nM
- IC50 [11]: 1.56 nM
- IC50 [12]: 0.682 nM
- Kd [13]: 0.746 nM
- IC50 [14]: 0.189 nM
- Inhibition on IL4 induced STAT6 phosphorylation (IC50, nM) [15]: 0.7 nM
- Inhibition on IL13 induced STAT6 phosphorylation (IC50, nM) [15]: 0.84 nM
- EC50 [16]: 0.0505 nM
- EC50 [17]: 0.46 nM
- IC50 [18]: 0.19 nM and 0.13 nM
- EC50 [19]: 0.134 nM
- IC50 [20]: 0.421 nM
- EC50 [21]: 0.526 nM
- EC50 [22]: 0.4 nM and 0.53 nM
- EC50 [23]: 0.0228 nM
- EC50 [24]: 0.254 nM
- EC50 [25]: 0.0517 nM
- IC50 [26]: 0.302 nM
- EC50 [27]: 1.84 nM
- EC50 [28]: 0.674 nM
- IC50 [29]: 0.132 nM
- EC50 [30]: 0.05 nM
- IC50 [31]: 1.74 nM
- IC50 [32]: 0.505 nM
- IC50 [33]: 0.68 nM
- EC50 [34]: 0.462 nM
- IC50 [35]: 0.269 nM
- Inhibition on IL4 induced STAT6 phosphorylation (IC50, nM) [36]: 0.37 nM
- Inhibition on IL13 induced STAT6 phosphorylation (IC50, nM) [36]: 0.48 nM
- EC50 [37]: 1.72 nM
- IC50 [38]: 0.22 nM
- Kd [39]: 0.444 nM
- koff [39]: 0.00033 s⁻¹
- kon [39]: 742000 M⁻¹ s⁻¹
- EC50 [40]: 0.0485 nM
- IC50 [41]: 2.06 nM
- Kd [42]: 0.466 nM
- EC50 [43]: 0.0284 nM
- IC50 [44]: 0.313 nM
- IC50 [45]: 0.0158 nM
- IC50 [46]: 0.22 nM
- EC50 [47]: 0.954 nM
- IC50 [48]: 2.06 nM
- EC50 [49]: 0.397 nM
- Kd [50]: 0.17 nM
- koff [50]: 3.77e-05 s⁻¹
- kon [50]: 222000 M⁻¹ s⁻¹
- EC50 [51]: 3.33 nM
- IC50 [52]: 0.42 nM and 0.51 nM
- IC50 [53]: 1.74 nM and 1.56 nM
- Inhibition on IL4 induced STAT6 phosphorylation (IC50, nM) [54]: 0.28 nM
- Inhibition on IL13 induced STAT6 phosphorylation (IC50, nM) [54]: 0.53 nM
